{"source": "paper PMC10397247", "experiment_in_all_cases": "two-hybrid library CCNG1;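 note: natural log of median RNA to DNA barcode read ratio; higher means stronger binding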", "key": {"4H3297-bA": {"target": "T1, 4H3297-bA", "T1 chain": "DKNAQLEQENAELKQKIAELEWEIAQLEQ"}, "4H2253-bA": {"target": "T2, 4H2253-bA", "T2 chain": "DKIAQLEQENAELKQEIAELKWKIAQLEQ"}, "4H3041-bA": {"target": "T3, 4H3041-bA", "T3 chain": "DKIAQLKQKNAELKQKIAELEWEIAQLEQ"}, "4H730-bA": {"target": "T4, 4H730-bA", "T4 chain": "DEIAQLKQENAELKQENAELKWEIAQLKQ"}, "4H2162-bA": {"target": "T5, 4H2162-bA", "T5 chain": "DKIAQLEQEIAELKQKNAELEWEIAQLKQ"}, "4H2585-bA": {"target": "T6, 4H2585-bA", "T6 chain": "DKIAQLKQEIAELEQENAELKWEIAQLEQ"}, "4H2859-bA": {"target": "T7, 4H2859-bA", "T7 chain": "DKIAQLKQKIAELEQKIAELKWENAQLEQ"}, "4H264-bA": {"target": "T8, 4H264-bA", "T8 chain": "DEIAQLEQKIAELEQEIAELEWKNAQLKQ"}, "4H235-bA": {"target": "T9, 4H235-bA", "T9 chain": "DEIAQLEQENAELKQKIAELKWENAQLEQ"}, "4H2931-bA": {"target": "T10, 4H2931-bA", "T10 chain": "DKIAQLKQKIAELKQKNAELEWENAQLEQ"}, "4H932-bA": {"target": "T11, 4H932-bA", "T11 chain": "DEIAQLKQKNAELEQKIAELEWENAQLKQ"}, "4H2444-bA": {"target": "T12, 4H2444-bA", "T12 chain": "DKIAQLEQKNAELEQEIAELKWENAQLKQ"}, "4H855-bH": {"target": "T13, 4H855-bH", "T13 chain": "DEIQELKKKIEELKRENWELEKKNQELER"}, "4H2760-bA": {"target": "T14, 4H2760-bA", "T14 chain": "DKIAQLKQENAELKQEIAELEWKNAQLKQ"}, "4H2233-bA": {"target": "T15, 4H2233-bA", "T15 chain": "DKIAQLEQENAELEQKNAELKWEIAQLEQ"}, "4H2518-bA": {"target": "T16, 4H2518-bA", "T16 chain": "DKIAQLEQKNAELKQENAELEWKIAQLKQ"}, "4H3381-bA": {"target": "T17, 4H3381-bA", "T17 chain": "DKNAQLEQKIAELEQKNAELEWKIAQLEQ"}, "4H56-bA": {"target": "T18, 4H56-bA", "T18 chain": "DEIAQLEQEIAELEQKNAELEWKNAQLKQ"}, "4H3364-bA": {"target": "T19, 4H3364-bA", "T19 chain": "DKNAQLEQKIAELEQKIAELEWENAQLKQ"}, "4H349-bA": {"target": "T20, 4H349-bA", "T20 chain": "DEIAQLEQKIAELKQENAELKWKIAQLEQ"}, "4H949-bA": {"target": "T21, 4H949-bA", "T21 chain": "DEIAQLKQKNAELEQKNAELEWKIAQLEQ"}, "4H796-bA": {"target": "T22, 4H796-bA", "T22 chain": "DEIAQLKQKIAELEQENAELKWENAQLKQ"}}, "data": [{"binder": "DKIAQLEQEIAELKQKNAELEWEIAQLKQ", "note": "[4H2162-bA]", "values": [{"measurement": "interaction score", "setting": "4H3297-bA", "value": -0.125}, {"measurement": "interaction score", "setting": "4H2253-bA", "value": -0.158}, {"measurement": "interaction score", "setting": "4H3041-bA", "value": 1.37}, {"measurement": "interaction score", "setting": "4H730-bA", "value": 0.193}, {"measurement": "interaction score", "setting": "4H2162-bA", "value": 0.667}, {"measurement": "interaction score", "setting": "4H2585-bA", "value": -0.85}, {"measurement": "interaction score", "setting": "4H2859-bA", "value": 0.326}, {"measurement": "interaction score", "setting": "4H264-bA", "value": -1.08}, {"measurement": "interaction score", "setting": "4H235-bA", "value": 0.118}, {"measurement": "interaction score", "setting": "4H2931-bA", "value": 1.13}, {"measurement": "interaction score", "setting": "4H932-bA", "value": -1.48}, {"measurement": "interaction score", "setting": "4H2444-bA", "value": 0.102}, {"measurement": "interaction score", "setting": "4H855-bH", "value": -2.4}, {"measurement": "interaction score", "setting": "4H2760-bA", "value": -0.382}, {"measurement": "interaction score", "setting": "4H2233-bA", "value": 0.431}, {"measurement": "interaction score", "setting": "4H2518-bA", "value": 0.642}, {"measurement": "interaction score", "setting": "4H3381-bA", "value": -1.2}, {"measurement": "interaction score", "setting": "4H56-bA", "value": 0.371}, {"measurement": "interaction score", "setting": "4H3364-bA", "value": -0.464}, {"measurement": "interaction score", "setting": "4H349-bA", "value": 0.82}, {"measurement": "interaction score", "setting": "4H949-bA", "value": -0.448}, {"measurement": "interaction score", "setting": "4H796-bA", "value": -1.31}]}]}
